# Positions count from the first letter of the chain named.
# B1: Round 2 CD28BP-15 (ligand)
# chain: ITPKSVTKRVKETVMLSCDYNTSTEELTSLRIYWQKDSKMVLAILPGKVQVWPEYKNRTITDMNDNPRIVILALRPSDSGTYTCVIQKPVLKGAYKLEHLASVRLMIRADFPVPTINDLGNPSPNIRRLICSTSGGFPRPHLYWLENGEELNATNTTVSQDPGTELYMISSELDFNVTNNHSIVCLIKYGELSVSQIFPWSKPKQEPPIDQLPFWVIIPVSGALVLTAVVLYCLACRHVARWKRTRRNEETVGTERLSPIYLGSAQSSG
# notes: Full-length clone on transiently or stably transfected 293 cells; The end 303 is the end of the entry as counted; also called R2 CD28BP-15; clone 15
# B2: Baboon B7-1 (ligand)
# chain: VIHVTKEVKEVATLSCGHNVSVEELAQTRIYWQKEKKMVLTMMSGDMNIWPEYKNRTIFDITNNLSIVILALRPSDEGTYECVVLKYEKDAFKREHLAEVMLSVKADFPTPSITDFEIPPSNIRRIICSTSGGFPEPHLFWLENGEELNAINTTVSQDPGTELYTVSSKLDFNMTTNHSFVCLIKYGHLRVNQTFNWNTPKQEHFPDNLLPSWAITLISVNGIFVICCLTYCFAPRCRERRRNETLRRESVRPV
# notes: Wild-type parental gene expressed on transfected 293 cells
# B3: Orangutan B7-1 (ligand)
# chain: VIHVTKEVKEVATLSCGHNVSVEELAQTRIYWQKEKKMVLTMMSGDMNIWPEYKNRTIFDITNNLSIVILALRPSDEGTYECVVLKYEKDAFKREHLAEVTLSVKADFPTPSISDFEIPTSNIRRMICSTSGGFPEPHLSWLENGEELNAISTTVSQDPETELYAVSSKLDFNMTTNHSFMCLIKYGHLRVNQTFNWNTPKQEHFPDNLLPSWAITLISVNGIFVICCLTYCFAPRCRERRSNERLRRESVRPV
# notes: as for B2
# B4: Rhesus B7-1 (ligand)
# chain: B2 chain with H138R, F140S, N152S, G160E, V181M, Y231H
# notes: Wild-type parental gene expressed on transfected 293 cells; also called rhesus monkey B7-1
# B5: Round 1 CD28BP-84 (ligand)
# chain: GISQVTKSVKEMAALSCDYNISIDELARMRIYWQKDQQMVLSIISGQVEVWPEYKNRTFPDIINNLSLMILALRLSDKGTYTCVVQKNENGSFRREHLTSVTLSIRADSPVPSITDIGHPAPNVKRIRCSASGGFPEPRLAWMEDGEELNAVNTTVDQDLDTELYSVSSELDFNVTNNHSIVCLIKYGELSVSQIFPWSKPKQEPPIDQLPFWVIIPVSGALVLTAVVLYCLACRHVARWKRTRRNEETVGTERLSPIYLGSAQSSG
# notes: also called R1clone 84; Clone 84
# B6: Round 1 CD28BP-118 (ligand)
# chain: B5 chain with S109F, G134D
# notes: also called R1clone 118; Clone 118
# B7: Round 2 CD28D2-3 (ligand)
# chain: ITPKSVTKRVKETVMLSCDYNTSTEELTSLRIYWQKDSKMVLAILPGKVQVWPEYKNRTITDMNDNPRIVIQALRLSDSGTYTCVIQKPVLKGAYKLEHLASVRLMIRADFPVPTDLGNPSPNIRRLICSTSGGFPRPHLYWLENGEELNATNTTVSQDPGTELYMISSELDFNVTNNHSIVCLIKYGELSVSQIFPWSKPKQEPPIDQLPFWVIIPVSGALVLTAVVLYCLACRHVARWKRTRRNEETVGTERLSPIYLGSAQSSG
# B8: Round 2 CD28D12-5 (ligand)
# chain: ITPKSVTKRVKETVMLSCDYSTSTEELTSLRIYWQKDSKMVLAILPGKVQVWPEYKNRTITDMNDNPRIVILALRLSDSGTYTCVIQKPVLKGAYKLEHLASVRLMIRADFPVPSITDIGHPAPNVKRIRCSASGDFPEPRLAWMEDGEELNAVNTTVLDTELYSVSSELDFNVTNNHSIVCLIKYGELSVSQIFPWSKPKQEPPIDQLPFWVIIPVSGALVLTAVVLYCLACRHVARWKRTRRNEETVGTERLSPIYLGSAQPSG
# B9: Round 2 CD28H6-6 (ligand)
# chain: ITPKSVTKRVKETVMLSCDYSTSTEELTSLRIYWQKDSKMVLAILPGKVQVWPEYKNRTITDMNDNPRIVILALRLSDSGTYTCVIQKPVLKGAYKLEHLASVRLMIRADFPVPTINDLGNPSPNIRRLICSGFPRPHLYWLENGEELNATNTTVSQDPGTELYMISSELDFNVTNNHSIVCLIKYGELSVSQIFPWSKPKQEPPIDQLPFWVIIPVSGALVLTAVVLYCLACRHVARWKRTRRNEETVGTERLSPIYLGSAQSSG
# B10: Round 2 CD28B4-5* (ligand)
# chain: SGITPKSVTKRVKETVMLSCDYNTSTEELTSLRIYWQKDSKMVLAILPGKVQVWPEYKNRTITDMNDNPRIVILALRLSDKGTYTCVVQKPDLKGAYKLEHLASVRLMIRADFPVPSITDIGHPAPNVKRIRCSASGGFPEPRLAWMEDGEELNAVNTTVDQDLDTELYSVSSELDFNVTNNHSIVCLIKYGELSVSQIFPWSKPKQEPPIDQLPFWVIIPVSGALVLTAVVLYCLACRHVARWKRTRRNEETVGTERLSPIYLGSAQSSG
# B11: Round 2 CD28F10-2 (ligand)
# chain: ITPKSVTKRVKETVMLSCDYNTSTEELTSLRIYWQKDSKMVLAILPGKVQVWPEYKNRTITDMNDNPRIVILALRLSDSGTYTCVIQKPDLKGAYKLEHLTSVRLMIRADFPVPSITDIGHPAPNVKRIRCSASGDFPEPRLAWMEDGEELNAVNTTVDQDLDTELYSVSSELDFNVTNNHSIVCLIKYGELSVSQIFPWSKPKQEPPIDQLPFWVIIPVSGALVLTAVVLYCLACRHVARWKRTRRNEETVGTERLSPIYLGSAQSSG
# B12: Round 2 CD28G1-9 (ligand)
# chain: B11 chain with D90V, D136G
# B13: Round 2 CD28F12-5* (ligand)
# chain: B11 chain with T101A
# B14: Round 2 CD28A2-5 (ligand)
# chain: ITPKSVTKRVKETVMLSCDYNTSTEELTSLRIYWQKDSKMVLAILPGKVQVWPEYKNRTITDMNDNPRIVILALRLSDSGTYTCVIQKPDLKGAYKLEHLASVRLMIRADFPVPSITDIGHPAPNVKRIRCSASGGFPEPRLAWMEDGEELNAVNTTVDQDLDTELYSVSSELDFNMTSNHSFLCLVKYGDLTVSQTFYWQESKPTPSANQHLTWTIIIPVSAFGISVIIAVILTCLTCRNAAIRRQRRENEGKCKVLSVSIGTKLKFNR
# B15: Round 2 CD28D11-1 (ligand)
# chain: ITPKSVTKRVKETVMLSCDYNTSTEELTSLRIYWQKDSKMVLAILPGKVQVWPEYKNRTITDMNDNPRIVILALRLSDSGTYTCVVQKNENGSFRREHLTSVTLSIRADFPVPSITDIGHPAPNVKRIRCSASGDFPEPRLAWMEDGEELNAVNTTVDQDLDTELYSVSSELDFNVTNNHSIVCLIKYGELSVSQIFPWSKPKQEPPIDQLPFWVIILVSGALVLTAVVLYCLACRHVARWKRTRRNEETVGTERLSPIYLGSAQSSG
# B16: Round 2 CD28F11-8 (ligand)
# chain: ITPKSVTKRVKETVMLSCDYNTSTEELTSLRIYWQKDSKMVLAILPGKVQVWPEYKNRTITDMNDNPRIVILALRLSDSGTYTCVIQKPVLKGAYKLEHLTSVRLMIRADFPVPTINDLGNPSPNIRRLICSTSGGFPRPHLYWLENGEELNATNTTLSQDPETKLYMISSELDFNMTSNLCLVKYGDLTVSQTFYWQESKPTPSANQHLTWTIIIPVSAFGISVIIAVILTCLTCRNAAIRRQRRENEVEMQSCSQSP
# B17: Round 2 CD28C2-4 (ligand)
# chain: GISQVTKSVKEMAALSCDYNISIDELARMRIYWQKDQQMVLSIISGQVEVWPEYKNRTITDMNDNPRIVILALRLSDSGTYTCVIQKPVLKGAYKPEHLASVRLMIRADFPVPTINDLGNPSPNIRRLICSTSGGFPRPHLYWLENGEELNATNTTLSQDPETKLYMISSELDFNMTSNHSFLCLVKYGDLTVSQTFYWQESKPTPSANQHLTWTIIIPVSAFGISVIIAVILTCLTCRNAAIRRQRRENEVEMQSCSQSP
# Molecular target: human CD28 receptor (human, UniProt P10747 19-220)
# Test: cell-based or functional assay
row,Binder,T cell proliferation (3H-thymidine incorporation) of purified human T cells with anti-CD3 mAbs
1,B1,~10 fold

# Molecular target: T1, Soluble CD28-Ig (human, UniProt P10747 19-152, biotin-conjugated (NHS-biotin) in the labelled-ligand FACS assays)
# T1 construct: extracellular domain; Bought from R&D Systems; also called sCD28-Ig; CD28-Ig Fc; not shown: Fc portion of human IgG1
# Test: receptor binding assay, data not shown
row,Binder,binding result
1,B2,binds
2,B3,binds

# Molecular target: T2, Soluble CTLA-4-Ig (human, UniProt P16410 36-161, FITC-conjugated in the two-colour FACS assays; unlabelled and detected with FITC goat anti-human IgG in the concentration-dependent assay)
# T2 construct: extracellular domain; Bought from R&D Systems; also called sCTLA-4-Ig; CTLA-4-Ig Fc; not shown: Fc portion of human IgG1
# Test: receptor binding assay, data not shown
# T2 sequence (P16410 36-161): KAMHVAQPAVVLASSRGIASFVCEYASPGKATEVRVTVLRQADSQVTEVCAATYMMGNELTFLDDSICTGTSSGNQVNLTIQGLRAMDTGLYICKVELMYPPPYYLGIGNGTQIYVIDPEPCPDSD
row,Binder,binding result
1,B2,binds
2,B3,binds

# Molecular target: T1, Soluble CD28-Ig
# Test: two-colour FACS on transfected 293 cells
# Method: (§1) Biotin binds the fluorescence marker Streptavidin-PE. (R-PE has an excitation maximum of 565 nanometers (nm) and an emission maximum of 578 nm. B-PE has excitation and emission maxima of 545 nm and 578 nm, respectively. FITC has excitation and emission maxima of 494 and 519, respectively.) The cells were again washed twice and resuspended in 200 μl medium with 5 μg/ml propidium iodide (PI). The cells were then analyzed using a FACSCalibur flow cytometer and CellQuest software (BDIS, San Jose, Calif.). Cell sorting was performed by flow-cytometry based cell sorting screening methods using FACS (Fluorescence-Activated Cell Sorting) Vantage SE cell sorter (BDIS) (Becton Dickinson; San Jose, Calif.). The staining concentration was determined for each labeled protein to provide a maximal Mean Fluorescence Intensity (MFI) and minimal background signal (e.g., optimum staining concentration was the concentration per 10⁶ cells).
row,Binder,binding result
1,B4,binds

# Molecular target: T2, Soluble CTLA-4-Ig
# Test: two-colour FACS on transfected 293 cells
# Method: as §1
row,Binder,binding result
1,B4,binds

# Molecular target: T2, Soluble CTLA-4-Ig
# Test: FACS of transfected cells, Round 1 clones
row,Binder,binding result
1,B5,binds
2,B6,binds

# Molecular target: T1, Soluble CD28-Ig
# Test: two-colour FACS profile on transfected cells; score of preference for CD28-Ig over CTLA-4-Ig vs WT hB7-1
row,Binder,Binding Score
1,B7,1
2,B5,1
3,B6,1
4,B8,2
5,B9,1
6,B10,0
7,B11,1
8,B12,1
9,B13,1
10,B14,0
11,B15,2
12,B1,2
13,B16,0
14,B17,1

# — US20050154189A1 (MAXYGEN, published 2005)
